Experiments:
[1] = molecular target: T1, human PILRB, ectopically expressed on 293 cells (human, UniProt Q9UKJ0 20-227); assay: flow cytometry, MFI relative to 293 parental cells
T1 construct: also called hB
Protocol: (§1) Briefly, conditioned media containing antibodies were incubated with 293 cells for 30 min at 4° C., washed twice, and then detected with anti-mouse IgG Alexa 647.

[2] = molecular target: T2, murine PILRB, ectopically expressed on 293 cells (murine, UniProt Q2YFS2 29-224); assay: flow cytometry, MFI relative to 293 parental cells
T2 construct: whole, on cells; also called mB
Protocol: as §1

[3] = molecular target: cynomolgus PILRA, ectopically expressed on 293 cells (cynomolgus monkey); assay: flow cytometry, MFI relative to 293 parental cells
Protocol: as §1

[4] = molecular target: T3, human PILRA, G78 variant, ectopically expressed on 293 cells (human, UniProt Q9UKJ1 20-303); assay: flow cytometry, MFI relative to 293 parental cells
T3 construct: the cells are labelled G78; also called hA G78 OE; hA
Protocol: as §1

[5] = molecular target: T4, murine PILRA, ectopically expressed on 293 cells (murine, UniProt Q2YFS3 32-302); assay: flow cytometry, MFI relative to 293 parental cells
T4 construct: also called mA
Protocol: as §1

[6] = molecular target: T5, PILRA Fc (soluble human PILRA) (human, UniProt Q9UKJ1 20-197, limits assumed); assay: flow cytometry; PILRA Fc binding to human CD3+ T cells with antibody, relative to PILRA Fc alone
T5 construct: also called soluble PILRA; not shown: Fc part, detected with anti-human IgG
Protocol: The ability of conditioned media samples containing antibodies to inhibit the binding of PILRA Fc to human CD3+ T cells was assessed. Briefly, conditioned media samples containing antibodies were incubated with 1.25 ug/ml PILRA Fc for 30 min at 4° C. and then added to human T cells. After 30 minutes incubation at 4° C., cells were washed, and bound PILRA Fc was detected with anti-human IgG Alexa 647. Cells were analyzed by flow cytometry on FACS Canto II, and for all cell lines, the amount of PILRA Fc binding (MIFI) and the percentage of PILRA Fc binding in the presence of conditioned media relative to PILRA Fc binding alone was calculated. Several antibodies inhibited binding of PILRA Fc to human T cells, and a few antibodies enhanced PILRA-Fc binding to T cells. Antibodies that show enhancement in this assay may block cis inhibition to promote trans interactions or may allosterically activate to enhance trans interactions without blocking cis.

[7] = molecular target: T3, human PILRA, G78 variant, ectopically …; assay: flow cytometry; NPDC1-mIgGa binding to 293 cells expressing human PILRA G78 with antibody, relative to NPDC1 Fc alone
Protocol: Conditioned media samples containing antibodies (10 ug/ml) were assessed for modulating the binding of Neural Proliferation Differentiation and Control Protein 1 (NPDC1) Fc to 293 cells ectopically expressing human PILRA. Briefly, conditioned media samples containing antibodies were incubated with 293 cells expressing human PILRA for 30 minutes at 4° C., and then 5 μg/ml NPDC1 Fc was added to this mixture. Where the antibodies were generated from phage panning, a NPDC1-hIgG1 ligand was used. Where the antibodies were generated from hybridomas, a NPDC1-mIgGa ligand was used. After 30 minutes incubation at 4° C., cells were washed and cell-bound NPDC1 Fc was detected with anti-human or mouse IgG Alexa 647. Cells were analyzed by flow cytometry on FACS Canto II, and for all cell lines, the percentage of NPDC1 Fc binding in the presence of conditioned media relative to NPDC1 Fc binding alone was calculated. Several antibodies decreased binding of NPDC1 to human PILRA, and a few antibodies enhanced ligand binding to human PILRA. Antibodies that show enhancement in this assay may block cis inhibition to promote trans interactions or may allosterically activate to enhance trans interactions without blocking cis.

[8] = molecular target: T6, human PILRA, c-term His-Avi tag (human, UniProt Q9UKJ1 20-197, limits assumed); assay: SPR (Biacore), antibody captured, PILRA as analyte
T6 construct: not shown: C-terminal His-Avi tag
Method in brief: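 Antibodies were captured at 10 μg/ml on an anti-huFc or anti-msFc CM5 surface, and human PILRA was flowed at 33, 100 and 300 nM in HBSTE/0.5% BSA, pH 7.4. The surface was regenerated with 10 mM glycine-HCl, pH 2.1, after each analyte. Curves were double-referenced with buffer injections.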

[9] = molecular target: human PILRA on the surface of primary human macrophages or monocytes (human, UniProt Q9UKJ1 20-303); assay: cell-based or functional assay
Chain of human PILRA on the surface of primary human macrophages or monocytes (Q9UKJ1 20-303): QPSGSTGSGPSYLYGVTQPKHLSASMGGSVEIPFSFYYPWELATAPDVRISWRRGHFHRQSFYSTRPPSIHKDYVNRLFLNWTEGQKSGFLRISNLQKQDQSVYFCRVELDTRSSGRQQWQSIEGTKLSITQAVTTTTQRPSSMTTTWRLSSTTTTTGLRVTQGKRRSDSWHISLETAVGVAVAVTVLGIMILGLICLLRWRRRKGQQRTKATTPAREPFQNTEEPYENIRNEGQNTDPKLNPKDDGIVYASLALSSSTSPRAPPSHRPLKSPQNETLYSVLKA

T1 sequence (Q9UKJ0 20-227): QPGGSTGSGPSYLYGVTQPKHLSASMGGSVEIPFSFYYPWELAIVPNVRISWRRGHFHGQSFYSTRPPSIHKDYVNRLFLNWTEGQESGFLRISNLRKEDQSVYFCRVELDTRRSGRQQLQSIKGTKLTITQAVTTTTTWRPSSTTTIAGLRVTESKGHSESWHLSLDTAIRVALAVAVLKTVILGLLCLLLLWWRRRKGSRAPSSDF
T4 sequence (Q2YFS3 32-302): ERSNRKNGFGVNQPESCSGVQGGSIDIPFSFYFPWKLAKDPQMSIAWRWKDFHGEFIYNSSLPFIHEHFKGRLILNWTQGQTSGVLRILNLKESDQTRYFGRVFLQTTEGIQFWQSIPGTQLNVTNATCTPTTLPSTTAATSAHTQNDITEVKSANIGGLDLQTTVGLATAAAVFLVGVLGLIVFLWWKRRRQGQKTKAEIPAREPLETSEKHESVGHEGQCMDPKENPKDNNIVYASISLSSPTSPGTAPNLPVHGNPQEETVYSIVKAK
T3 sequence (Q9UKJ1 other isoform, or with tags, fused parts or gaps mutant): as the sequence (Q9UKJ1 20-303) above, with R59G counted along it
T5 sequence (Q9UKJ1 20-197 limits assumed): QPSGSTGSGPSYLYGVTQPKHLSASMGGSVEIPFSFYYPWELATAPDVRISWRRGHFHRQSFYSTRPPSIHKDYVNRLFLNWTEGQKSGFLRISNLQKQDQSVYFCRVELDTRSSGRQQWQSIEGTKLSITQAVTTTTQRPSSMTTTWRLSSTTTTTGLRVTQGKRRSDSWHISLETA
T6 sequence (Q9UKJ1 20-197 limits assumed): as above
T2 sequence (Q2YFS2 29-224): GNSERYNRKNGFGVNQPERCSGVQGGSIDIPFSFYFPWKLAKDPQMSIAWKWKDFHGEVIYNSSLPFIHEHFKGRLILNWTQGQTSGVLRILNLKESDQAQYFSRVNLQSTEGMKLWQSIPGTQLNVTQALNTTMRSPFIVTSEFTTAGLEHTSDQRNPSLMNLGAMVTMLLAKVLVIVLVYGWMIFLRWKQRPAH
Chain of cynomolgus PILRA, ectopically expressed on 293 cells (cynomolgus monkey) (chain, as listed by the source): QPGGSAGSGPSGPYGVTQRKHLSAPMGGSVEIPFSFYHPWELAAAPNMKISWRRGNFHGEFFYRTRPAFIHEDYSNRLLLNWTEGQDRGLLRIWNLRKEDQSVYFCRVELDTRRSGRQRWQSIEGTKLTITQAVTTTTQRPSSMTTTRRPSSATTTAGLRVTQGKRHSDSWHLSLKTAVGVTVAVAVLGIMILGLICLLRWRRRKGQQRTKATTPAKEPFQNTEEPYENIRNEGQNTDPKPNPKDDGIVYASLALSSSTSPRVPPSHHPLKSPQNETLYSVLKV

| Binder | MFIr [1] | MFIr [2] | MFIr [3] | MFIr [4] | MFIr [5] | % Binding [6] | % Binding [7] | Kd [8] | koff [8] | kon [8] | t½ [8] | hPILRA downregulation EC50 [9] |
| --- | --- | --- | --- | --- | --- | --- | --- | --- | --- | --- | --- | --- |
| E13 (antibody, V domains shown, first hybridoma campaign) VH: QVQLQQPGAELVMPGASVKLSCKASGYTFTRYWIHWVRQRPGQGLEWIGEIDPSDSYTNHNQKFKDKATLTVDKSSSTAYMQLSSLTSEDSAVYFCANSNYDYWGQGTTLTVSS VL: not shown | 1.1 | 0.8 | 0.8 | 36.1 | 1 | 82% | 110% | 10.5 nM | 0.0036 s⁻¹ | 340000 M⁻¹ s⁻¹ | 3.3 min |  |
| C1 (antibody, V domains shown, first hybridoma campaign) VH: QIQLVQSGPELKKPGETVKISCKASGYTFTTYGMSWVKQAPGKGLKWMGWINTYSGVPTYADDFQGRFAFSLETSASTAYLQINNLKNEDTAPYFCVRDGYAAPYWGQGTLVTVSA VL: NIMMTQSPSSLAVSAGEKVTMRCKSSQSVLYSSNQKNYLAWYQQKPGQSPKLLIYWASTRESGVPDRFTGSGSGTDFTLTISSVQAEDLAVYYCHQYLSSWTFGGGTKLEIK | 1.2 | 0.8 | 70.5 | 113 | 0.8 | 60% | 158% | 45 nM | 0.0037 s⁻¹ | 81000 M⁻¹ s⁻¹ | 3.2 min |  |
| hPA-002 (hIgG4 isotype) (antibody, V domains shown) VH: QVTLQESGPGILQPSQTLSLTCSFSGFSLSTFGMGVGWIRQPSGKGLEWLAHIWWDDDKYYNPALKSRLTISKDTSKNQVFLKIASVDTADIATYYCARVEDYGNPFDYWGQGTTL VL: DIQMNQSPSSLSASLGDTITITCHASQNIHVWLNWYQQKPGNIPKLLIYKASNLHTGVPSRFSGSGSGTGFTVTISSLQPEDIATYYCQQGQSYPLTFGAGTKLELK |  |  |  |  |  |  |  |  |  |  |  | 0.48 µg/mL |
| C7 (antibody, V domains shown, first hybridoma campaign) VH: QVQLQQSGAELARPGTSVKLSCKASGYIFTDYAISWVKQRTGQGLQWIGEIYPGSDNAYYNENFKGKATLTADKSSNTAYMELRSLTSEDSAVYFCAKWAGSLFDFWGQGTALTVSS VL: DIVMTQSQKFMSTSVGDRVSVTCKASRNVGFNVAWYQQNPGQSPKALIYSASYRYSGVPDRFTGSGSGTDFTLTISDVQSEDLAEYFCHQYNSYPYTFGGGTKLEIR | 1.2 | 0.3 | 0.3 | 202 | 0.3 | 8.1% | 35.9% |  |  |  |  |  |
| C8 (antibody, V domains shown, first hybridoma campaign) VH: EVQLQQSGADLVKSGASVKLSCTASGFNIKDYYIHWVKQRTAQGLEWIGRITPEDGETEYAPTFQVKATITADTSSNTAYLQLNSLTSEDTAVYYCSLGDYDVSPFAYWGQGTLVTVSA VL: DIQMTQSPASQSASLGESVTITCLASQTIGTWLAWYQQKPGKSPQLLIYAATSLADGVPSRFSGSGSGTKFSFKISSLQAEDFVSYYCQQLYSTPYTFGGGTKLEIK | 1.2 | 0.8 | 0.8 | 44.2 | 0.9 | 33.2% | 69.7% |  |  |  |  |  |
| A16 (hIgG4 isotype) (antibody, V domains shown) VH: QVQLVQSGAEVKKPGSSVKVSCKASGYNFLNYDVNWVRQAPGQGLEWMGGIIPIFGTANYAQKFQGRVTITADESTSTAYMELSSLRSEDTAVYYCATGVGAGWFDPWGQGTLVTVSS VL: not shown |  |  |  |  |  |  |  |  |  |  |  | 0.4 µg/mL |
| C2 (antibody, V domains shown, first hybridoma campaign) VH: QVQLQQSGAELVRPGASVTLSCKAAGYTFADYEMHWVRQTPVLGLEWIGAIDSEPGRTVYNQKFKSKAILTADKSSSTAYMELRSLTSDDSAVYYCTRRGAFYTNYDFFDYWGQGTTLTVSS VL: not shown | 1.1 | 0.8 | 2.7 | 102 | 0.9 | 66.2% | 177% | 2.2 nM | 0.0038 s⁻¹ | 1.7e+06 M⁻¹ s⁻¹ | 3.1 min |  |

— patent publication US20240425587A1 (Alector, published 2024)
